Tests used:
[1] = test system: Peptide H-1: H2N-(CH2)4-CO-Lys-Val-Arg-Phe-Val-Gly-NHCH2-Fc
[2] = test system: Peptide H-16: H2N-(CH2)4-CO-Pro-Leu-Ala-Gly-Val-Ala-NH-CH2-Fc
[3] = test system: Peptide H-4: H2N-(CH2)4-CO-Pro-Val-Gly-Phe-Val-Ala-NHCH2-Fc
[4] = test system: Peptide H-5: H2N-(CH2)4-CO-Ala-Pro-Leu-Arg-Phe-Gly-Ala-Ala-NHCH2-Fc
[5] = test system: Peptide H-7: H2N-(CH2)4-CO-Pro-Leu-Gly-Gly-Val-Ala-NHCH2-Fc
[6] = test system: Peptide H-2: H2N-(CH2)4-CO-Pro-Thr-Arg-Phe-Val-Gly-NHCH2-Fc
[7] = test system: Peptide H-3: H2N-(CH2)4-CO-Pro-Leu-Arg-Phe-Gly-Ala-NH-CH2-Fc
[8] = test system: Peptide H-15: H2N-(CH2)4-CO-Pro-Leu-Ala-Phe-Val-Ala-NH-CH2-Fc
[9] = test system: Peptide H-6: H2N-(CH2)4-CO-Pro-Leu-Gly-Phe-Val-Ala-NHCH2-Fc

recombinant human cathepsin B (rhCB), activated by incubation in 25 mM MES buffer (pH 5.0) containing 5 mM DTT for 15 min
proteolysis rate (electrochemical measurements, fluorogenic assays and HPLC-MS analysis); one of the 'other candidates' with a lower rate [1]: three peptides H-3, H-15 and H-16 were selected for this study due to the higher proteolysis rates by cathepsin B compared to other candidates | proteolysis rate (electrochemical measurements, fluorogenic assays and HPLC-MS analysis) [2]: three peptides H-3, H-15 and H-16 were selected for this study due to the higher proteolysis rates by cathepsin B compared to other candidates | proteolysis rate (electrochemical measurements, fluorogenic assays and HPLC-MS analysis); one of the 'other candidates' with a lower rate [3]: three peptides H-3, H-15 and H-16 were selected for this study due to the higher proteolysis rates by cathepsin B compared to other candidates | proteolysis rate (electrochemical measurements, fluorogenic assays and HPLC-MS analysis); one of the 'other candidates' with a lower rate [4]: three peptides H-3, H-15 and H-16 were selected for this study due to the higher proteolysis rates by cathepsin B compared to other candidates | proteolysis rate (electrochemical measurements, fluorogenic assays and HPLC-MS analysis); one of the 'other candidates' with a lower rate [5]: three peptides H-3, H-15 and H-16 were selected for this study due to the higher proteolysis rates by cathepsin B compared to other candidates | proteolysis rate (electrochemical measurements, fluorogenic assays and HPLC-MS analysis); one of the 'other candidates' with a lower rate [6]: three peptides H-3, H-15 and H-16 were selected for this study due to the higher proteolysis rates by cathepsin B compared to other candidates | proteolysis rate (electrochemical measurements, fluorogenic assays and HPLC-MS analysis) [7]: three peptides H-3, H-15 and H-16 were selected for this study due to the higher proteolysis rates by cathepsin B compared to other candidates | proteolysis rate (electrochemical measurements, fluorogenic assays and HPLC-MS analysis) [8]: three peptides H-3, H-15 and H-16 were selected for this study due to the higher proteolysis rates by cathepsin B compared to other candidates | proteolytic activity among about 30 synthesized peptides [8]: has shown the highest proteolytic activity by cathepsin B | proteolysis rate (electrochemical measurements, fluorogenic assays and HPLC-MS analysis); one of the 'other candidates' with a lower rate [9]: three peptides H-3, H-15 and H-16 were selected for this study due to the higher proteolysis rates by cathepsin B compared to other candidates

From US20220349880
